Assay: label from the status in PepcDB records

| Sequence | protein production |
| --- | --- |
| MSPDSCPLVKNILLLDSEGKRVAVKYYSDDWPTNAAKLSFEKYVFSKTSKTNARTEAEITLLDSNIIVYKFAQDLHFFVTGGENENELILASVLQGFFDAVALLLRSNVEKMEALENLDLIFLCLDEMVDQGVVLETDPNVIAGKVAMQSTEASGSLSEQTLTQALATAREHLARSLLT | failed |
| MYKSPLTLLTLLTICFGFFDLSSALYGSSSPVVQLTASNFKSKVLNSNGVVLVEFFAPWCGHCKALTPTWEKVANILKGVATVAAIDADAHQSAAQDYGIKGFPTIKVFVPGKAPIDYQGARDAKSIANFAYKQIKGLLSDRLEGKSKPTGGGSKEKKSEPSASVELNASNFDDLVIESNELWIVEFFAPWCGHCKKLAPEWKRAAKNLQGKVKLGHVNCDVEQSIMSRFKVQGFPTILVFGPDKSSPYPYEGARSASAIESFASELVESSAGPVEVTELTGPDVMEKKCGSAAICFISFLPDILDSKAEGRNKYLEMLLSVAEKFKKQPYSFMWVAAVTQMDLEKRVNVGGYGYPAMVAMNVKKGVYAPLKSAFELQHLLEFVKDAGTGGKGNVPMNGTPEIVKTKEWDGKDGELIEEDEFSLDELMGGDDAVGSKDEL | failed |
| MNRDLPVLRALRSLPDKVVGEALVSNDAISMRYDVDASTGKVVRPSHDLYGQSISGKVLIFKNTKGGVATGWALLNLKSRGTAPIALVCDTTNPVFVQGAALAGLPIMDGFRESPRSAVRTGDVVELDGISGELKVLRRGAGGQLEHHHHHH | failed |
| MSKKIILITGASSGFGRLTAEALWSRPPGIRLDARHCRPQRVQCSPALPGTMTLTCAPWSSTSSRRSVDRAIDQIIGEDGRIDVLIHNAPHGVRTRRSIHARAVRRALRYQCAPNASTGRRCRTCAGKSMGFSWISSSSSAGGTPPYLAPYFAAKAHGCHRCAVRTAVALGHRDVDHRPVPSRAAPITSPIPAYRTTTPAAEYEAGPNAGLGEEIKKAFAAIVAGRRCVTGCRCHCSGCGHRVRQARSGCTSTRPKTAPMWDSAFWTGRAEMLHRVGLSDLLKPRALA | not failed |
| MQDGFLTVSIIDATNNRPIQNAVVNIYSMSNGSQSSSTLYQNLRSNESGQVTGLVLPAPDVDYSLQPSDVRPYSQYIVEAIADGYETVVIEGTQLLATIEARQGVPMSPRTRSKRSFSRQSELIFDIGEHTLYGTYPPKIPESNLKPLPPPTGFVVLDNPVVPEFIVVHDGLPEDSSAPNYWIPFKEYIKNIASSEIYSTWPEQTIYANVIAIISFTLNRVFTEWYRNKGYNFTITSTTAYDHKFINNRNLFEPINVVVDAIFNTFIKRPPTSRQPLLAQYCDGQKSQCPDQMTQWGSKDLGDQGYDYESILRYFYGDEIVFERAPIVSGVPVSFPGTTLQVGSSGQYVRTIQNQLNAISNSYPAVPKVIEDGIYGTDTENAVKIFQGIFGLPQSGVVDFKTWYEISRVYVATTRIASLNPLILEHHHHHH | not failed |
| LRASEIMNRTLDLQIIMDDLLNLLLKEFKLDLAVIRLVDEKGVLRVRSYSGKGIAGIAGKDWEPEIETYIGEAFLSNRLQFVNDTQYMTKPLTRELMQKEGIKSFAHIPISRKGEPPFGILSVFSRTIVGLFNEPFLNLLESLAGQLAQAVKIVTEMEAKEREREEKERILLENA | not failed |
| MAPKDITFVERCYKYIDMNKNNWSPYTVTSTKSWVKNYIEPFFKNLKLTEVNPSSVQAFVNYNFNNSTFTSAKVRYSFLSSVIREAYRLREIQENSCDFIKLPLEHHHHHH | not failed |
| MQYRIRRENEAPEAKNAGETLWERDMMREVLLSAYRDRRRERMWKNIWRAVSTLILVALIAGIFRKDEAALQLAGNTPHTAVVNLYGEIGNGVEDQVKKLKDGMEAAYKNPQAKAIVIRANSPGGSPVVSNTAFEEIRRLKAQHPGIPVYLVAEDMCASGCYYIAAAADKIYADPSSIVGSIGVIGSSFDATGLMEKIGVKRRVKIAGSNKGMGDPFSPETPEQSKIWEEMLTGIHGEFIKAVKTGRGGRLKFRQYPDVFSGRVYTGADALKVGLVDGLGNIYSVARDVVKAPDVVDYTPKDDFGRILGRRFGAELKASVREALQAVR | failed |
| MVRKQKRARLIYNPTSGQEIMKKNVAEVLDILESFGYETSAFQTTPRADSAKNEAARASQAGFDLVIAAGGDGTINEVVSGIAPLKRRPKVAIIPTGTTNDFARALKIPRGNPVEATKLIGKNQTIHMDIGRAYNDKYFINIAAAGSLTELTYSVPSQLKTMFGYLAYLVKGAELLPRVRNVPVKVFYDHGVFEGEASMIFVALTNSVGGFETIAPDAKLDDGKFTLILVKTANLFELTDLIRLVLTGGRHINHKKIEYIKTSYLKIIPQGNPPKRMMINLDGEYGGDAPIELRNLKNHIEFFANTDEISDDAITLDTEELVLEAIAQKFAREAESLDEMDKTKEQD | not failed |

Reference: a protein production outcome set (Wang et al. 2014)
